According to patent US20180263919A1, “THERAPEUTIC ELECTROSPUN FIBER COMPOSITIONS” (The Johns Hopkins University, priority 2006, published 2018):

Columns and labels:
PC12 cells [1] = test: Bioactivity of released NGF: differentiation of PC12 cells into neurons; assay type: cell-based, rat; conditions: positive control, fresh NGF at 400 ng/ml
PC12 cells [2] = conditions: Thoenen and Bard; cited from earlier work
[3] = rat, in vivo; cited from earlier work
[4] = in vivo, iv; cited from earlier work

Row | Substance | percentage of PC12 cells induced to differentiate (PC12 cells [1]) | threshold for induction of PC12 cell differentiation (PC12 cells [2]) | elimination half-life [3] | biologic half-life [4]
1 | NGF: Recombinant human n-nerve growth factor (NGF) from R&D Systems | 20-55% | around 0.5 ng/ml | less than 5 hours | –
2 | bFGF: basic fibroblast growth factor | – | – | – | 3 minutes
3 | PDGF | – | – | – | 2 minutes
